Data taken from article PMC10403728, “Interactions between Fkh1 monomers stabilize its binding to DNA replication origins” (The Journal of Biological Chemistry, 2023).

Biological target: the molecule itself
Experiment: SEC + other: glycerol gradient sedimentation; purified FLAG-Fkh1; Superdex 200 5/150 GL in 150N buffer (25 mM Hepes-NaOH pH 7.6, 150 mM NaCl, 10% glycerol, 1 mM β-mercaptoethanol); main-peak and shoulder fractions on 10 to 15% glycerol gradients, 180,000g, 18 h, 4 °C; approximate molecular weight from Stokes radius and S value; monomer and dimer

B1: full-length Fkh1 (natural protein, Saccharomyces cerevisiae, UniProt P40466 1-484, looked up)
chain: MSVTSREQKFSGKYSSYTAQDRQGLVNAVTCVLSSSSDPVAVSSDYSNSLSIAREVNAYAKIAGCDWTYYVQKLEVTIGRNTDSLNLNAVPGTVVKKNIDIDLGPAKIVSRKHAAIRFNLESGSWELQIFGRNGAKVNFRRIPTGPDSPPTVLQSGCIIDIGGVQMIFILPEQETIISDYCLNHLMPKLLSTYGTNGNNNPLLRNIIEGSTYLREQRLQEEARLQQLDHLHTPLSSSSDVNPIGDPHGDTIMMEEDEEDENYTRGGIRPNTYTSSSNNAVTNGNVPHIENPSDLSLDENRYIKPPQSYASMITQAILSTPEGSISLADIYKFISDNYAFYRFSQMAWQNSVRHNLSLNKAFEKVPKRAGQQGKGMNWKISDEVRRDFLNKWNAGKLSKIRRGASVTRQLQLHMSKFGEIPAPESSSIDPRGIKAQKVKKSLQATSSILGESAPQLQRTQLTGQISTTTSMDVTTNANVNNSSLS
notes: Fkh1, Forkhead family transcription factor of Saccharomyces cerevisiae, full length (the truncation Δ410–484 tells a length of 484 residues); also called wild-type Fkh1; FLAG-tagged full-length Fkh1; source: S. cerevisiae (W303 derivative), GAL1-10 promoter, galactose-induced; also in whole-cell extract of a strain co-expressing two differently tagged copies; not shown: FLAG, N-terminal, kept
stoichiometry N: 2
